Reference: patent US20250270343A1 (Alector, published 2025)
Positions count from the first letter of the chain named.

T1: full-length untagged human GPNMB expressed on cells (human, UniProt Q14956 23-572)
T1 construct: also used here for GPNMB on human monocyte-derived macrophages in the functional assays; also called huGPNMB; Freestyle293-huGPNMB+
T1 sequence: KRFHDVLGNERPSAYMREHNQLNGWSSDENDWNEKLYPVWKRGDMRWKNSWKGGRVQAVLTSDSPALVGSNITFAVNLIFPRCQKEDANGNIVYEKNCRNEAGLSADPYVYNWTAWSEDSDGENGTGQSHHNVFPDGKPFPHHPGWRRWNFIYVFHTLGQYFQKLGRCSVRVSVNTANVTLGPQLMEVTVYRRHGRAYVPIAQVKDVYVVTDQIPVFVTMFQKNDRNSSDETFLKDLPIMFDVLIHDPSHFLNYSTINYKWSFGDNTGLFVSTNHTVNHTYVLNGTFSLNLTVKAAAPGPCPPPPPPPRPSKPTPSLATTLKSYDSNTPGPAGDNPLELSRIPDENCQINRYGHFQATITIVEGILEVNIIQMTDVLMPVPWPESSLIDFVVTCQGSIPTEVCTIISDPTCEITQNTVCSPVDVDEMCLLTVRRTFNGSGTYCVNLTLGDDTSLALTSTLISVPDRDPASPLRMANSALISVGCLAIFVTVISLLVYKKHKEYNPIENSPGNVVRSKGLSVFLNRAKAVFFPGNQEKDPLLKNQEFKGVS

T2: soluble human GPNMB (recombinant extracellular domain) (human, UniProt Q14956 23-498)
T2 construct: also called huGPNMB; recombinant human GPNMB extracellular domain; not shown: C-terminal polyhistidine or Avi-His tag
T2 sequence: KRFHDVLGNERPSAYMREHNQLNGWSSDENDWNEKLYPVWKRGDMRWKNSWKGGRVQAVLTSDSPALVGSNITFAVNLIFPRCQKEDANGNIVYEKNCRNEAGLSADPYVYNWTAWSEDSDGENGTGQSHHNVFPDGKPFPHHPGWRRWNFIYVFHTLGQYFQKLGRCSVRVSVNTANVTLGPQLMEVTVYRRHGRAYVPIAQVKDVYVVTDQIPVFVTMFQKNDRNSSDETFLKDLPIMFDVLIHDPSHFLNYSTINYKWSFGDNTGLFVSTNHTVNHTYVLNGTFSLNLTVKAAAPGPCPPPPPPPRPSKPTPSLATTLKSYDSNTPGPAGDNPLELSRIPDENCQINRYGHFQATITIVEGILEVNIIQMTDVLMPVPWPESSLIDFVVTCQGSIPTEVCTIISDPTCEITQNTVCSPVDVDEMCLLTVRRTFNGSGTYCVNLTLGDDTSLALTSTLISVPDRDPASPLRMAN

B1: anti-GPNMB antibody GPN-01 (antibody, human IgG1, V domains shown)
VH: QVQLQQSGAELAKPGASVKLSCKASGYNFTNYCIHWVKQRPGQGLEWIGYINPSTGYTEYNQKFKDKATLTADKSSTTAYMQLSSLTSEDSAVYYCARGRYDEFTYWGQGTLVTVSA
VL: DIVLTQSPASLAVSLGQRATISCRASKSVSTSTYSYMHWYQQKPGQPPKLLIYLASNLESGVPARFSGSGSGTDFTLNIHPVEEEDAATYYCQHSRELPPTFGGGTKLEIK
notes: chimeric
B2: anti-GPNMB antibody GPN-08 (antibody, human IgG1, V domains shown)
VH: QVQLQQPGAELVKPGASVKLSCRASGYTFTSYWLHWVKQRPGQGLEWIGEINPSDGRTNYIEKVKTKATLTVDKSSSTAYMQLSSLTSEDSAVYYCARSGGNYAWFAYWGQGTLVTVSA
VL: DIVMTQSHKFMSTSVGDRVSITCKASQDVSPSVAWYQQRPGQSPKLLIYSASYRYTGVPDRFTGSGSGTDFTFTISSVQAEDLAVYYCQQHYSIPLTFGAGTKLELK
notes: chimeric
B3: anti-GPNMB antibody GPN-34 (antibody, human IgG1, V domains shown)
VH: EVKLVESGGGLVQPGRSLKLSCAASGFNFYDYWMGWVRQAPGKGLEWIGEINKDSRTINYTPFLKDRFTISRDNAQNTLYLQMSKLGSEDTAIYYCAREGRVPFDYWGQGVMVTVSS
VL: DIQMTQSPSSMSVSLGDTVTIPCRASQDVGSYVNWFQQKPGKSPRHMIYRATNLADGVPSRFSGSRSGADYSLTISSLESEDVADYHCQQYAEYPLTFGSGTKLEIK
notes: chimeric
B4: anti-GPNMB antibody GPN-24 (antibody, human IgG1, V domains shown)
VH: QVQLQQPGAELVKPGASVKMSCKASGYTFTSYWITWVKQRPGQGLEWIGDIHPGSGRSNYNEKFKNKATLNVDTSSSTVYMQLSSLTSEDSAVYYCARDYLFAYWGQGTLVTVSA
VL: DIQMTQSPSSLSASLGERVSLTCRASQEISGYLSWLQQKPDGTIKRLIYSTSTLDSGVPKRFSGSRSGSDYSLTISSLESEDFADYYCLQYTSSPPTFGGGTKLEIK
notes: chimeric
B5: anti-GPNMB antibody GPN-22 (antibody, human IgG1, V domains shown)
VH: QVQLQQPGAERVKPGASVKMSCKASGYTFTSYWITWVKQRPGQGLEWIGDIFPGSGSTNYHEKFKSKATLTVDTSSSTAYMQLSSLTSEDSAVYYCSRGYFGSSFSDYWGQGTSVTVSS
VL: B4 VL with A25T, T92A, G100S
notes: chimeric
B6: anti-GPNMB antibody GPN-26 (antibody, human IgG1, V domains shown)
VH: EVQLQQSGPELVKPGASVKISCKASGYSFTGYYMNWVRQSPEKSLEWIGEINPSTGITTYNQKFKAKATLTVDKSSNTAFMQLKSLTSEDSAVYYCARPASWFDYWGQGTLVTVSA
VL: B4 VL with Y32H, S50A, T51A, T92A, S94Y, P96Y
notes: chimeric
B7: anti-GPNMB antibody GPN-07 (antibody, human IgG1, V domains shown)
VH: QVQLQQSGAEQVKPGASVKLSCKASGYTFTSYYMYWVKQRPGQGLEWIGEINPSNGGTYFNEKFKSKATLTVDKSSSTAYMHLSSLTSEDSAVYYCTRGGTYYAYWGQGTLVTVSA
VL: B4 VL with I29M, Y32H, S50A, T51A, T92A, S94Y, P96Y
notes: chimeric
B8: anti-GPNMB antibody GPN-30 (antibody, human IgG1, V domains shown)
VH: EVQLQQSGPELVNPGASVRISCKASGYSFTGYYMNWVKQSPEKSLEWIGEINPNTGFTTYNQNFKAKATLTVDKSSSTAYIQLKSLTSEDSAVYYCTRPSPSFDYWGQGTTLTVSS
VL: B4 VL with V19G, Y32H, S50A, T51A, T92A, S94Y, P96Y
notes: chimeric
B9: anti-GPNMB antibody GPN-09 (antibody, human IgG1, V domains shown)
VH: B7 VH with Q11L, M34I, S66N, H82Q, T101N
VL: B4 VL with Y32H, S34G, S50A, T51A, S52L, T92A, S94Y, P96Y
notes: chimeric
B10: anti-GPNMB antibody GPN-31 (antibody, human IgG1, V domains shown)
VH: B6 VH with R38K, S44N, S54N, I57G, N77T, F80Y, A97T
VL: B4 VL with Y32H, S50A, T51A, S65R, T92A, S94Y, P96Y, E105A
notes: chimeric
B11: anti-GPNMB antibody GPN-25 (antibody, human IgG1, V domains shown)
VH: B6 VH with R38K, S54G, T55S, N77S, F80Y, M81L, D104A
VL: B4 VL with L21F, T22I, Y32H, S50A, T51A, T92A, S94Y, P96Y
notes: chimeric
B12: anti-GPNMB antibody GPN-11 (antibody, human IgG1, V domains shown)
VH: QVQLQQPGAELVKPGASVKLSCKASGYTFTSYWMHWVKQRPGQGLEWIGEINSSNGRTNYNEKFKTKATLTVDRSSSTAYMQLSSLTSEDSAVYYCARLGYYSGSPYPYYAMDCWGQGTSVTVSS
VL: DIQMTQSPASLSVSVGETVTITCRASENIYSNLAWYQQKQGKSPQLLVYAATNLADGVPSRFSGSGSGTQYSLKINSLQSEDFGSYYCQHFWNTPPTFGGGTKLEIK
notes: chimeric
B13: anti-GPNMB antibody GPN-43 (antibody, human IgG1, V domains shown)
VH: EVQLQQSGPELVKPGASVKISCKASGYTFTDYYMNWVRQSHGKSLEWIGDINPYHGGSTYNQKIKVKATLTVDKSSSTAYMELRSLTSEDSAVYYCARNWPYFDYWGQGTTLTVSS
VL: DIQMTQSPASLSASVGETVTITCRASENIYSFLVWYQQKQGKSPQLLVYNAKTLAEGVPSRFSGSGSGTQFSLKISSLQPEDFGSYYCQHHFGTPPYTFGGGTKLEIK
notes: chimeric
B14: anti-GPNMB antibody GPN-42 (antibody, human IgG1, V domains shown)
VH: DVKLVESGEDLVKPGGSLKLSCAASGFTFSSYAMSWVRQTPEKRLEWVAYISSGGDYIYYADTVKGRFTISRDNARNTLYLQMSSLKSEDTAMYYCTRDRYYDYDVRDYYTMDYWGQGTSVTVSS
VL: DVMMTQTPLSLPVSLGDQASISCRSSQSLVHSNGNTYLHWFLQKPGQSPKLLIFRVSNRFSGVPDRFSGRGSGTDFTLKISRVEAEDLGVYFCSQTTHVPRTFGGGTTLEIK
notes: chimeric

target: T1, full-length untagged human GPNMB …; assay: FACS, FS293-huGPNMB+ cells
Protocol: Recombinant anti-GPNMB antibodies of the present disclosure were examined for their ability to bind human and/or mouse GPNMB expressed on Freestyle293-huGPNMB+ or B16F10 cells, respectively. B16F10 cells are a murine melanoma cell line from a C57BL/6J mouse that endogenously express high levels of mouse GPNMB. The antibodies were also tested for their ability to bind to a human macrophage cell line (U937 cells) engineered to express human GPNMB. Cells were harvested, plated at 100,000 cells/well in a 96-well round bottom plate, and incubated in 100 μl FACS buffer (PBS containing 2% FBS, 2 mM EDTA) containing anti-GPNMB monoclonal antibodies of the present disclosure for 30 minutes on ice. Cells were then washed and incubated in 100 ul FACS buffer containing 1 μg/ml APC-conjugated anti-human IgG secondary antibody for 30 minutes in ice. Cells were washed twice in cold FACS buffer and acquired on a BD FACS Canto. Data analysis and calculation of MFI values was performed with FlowJo (TreeStar) software version 10.0.7.
Importantly, several anti-GPNMB antibodies of the present disclosure also bound to the human macrophage cell line U937 cells engineered to express human GPNMB (U937/huGPNMB+) (FIG. 2C). In FIG. 2C, the first data point in each pair corresponds to U937/huGPNMB+ cells, and the second data point in each pair corresponds to U937/huGPNMB− cells. No anti-GPNMB antibodies bound to U937 cells deficient in human GPNMB expression (U937/huGPNMB−).

Binder	MFI fold over background [fold]
B1	43.2
B2	74.4
B3	125
B4	59.9
B5	44.8
B6	46.3
B7	66.5
B8	34.4
B9	35.1
B10	53.8
B11	42.7
B12	56.2

target: T2, soluble human GPNMB (recombinant …); assay: SPR Carterra, Ab immobilized
Protocol: Binding kinetics of human anti-GPNMB IgG1 antibodies of the present disclosure to human, cynomolgus, and mouse GPNMB were evaluated using a Carterra LSA instrument (Carterra, Salt Lake City, UT). […] A HC200M sensor chip (Carterra) was activated using the single channel flow cell with a 7-minute injection of a 1:1:1 mixture of 100 mM MES pH 5.5, 100 mM sulfo-NHS, 400 mM EDC (all reconstituted in MES pH 5.5; 100 μl of each mixed in vial immediately before running assay). After switching to the multi-channel array flow cell, the antibodies were injected over the activated chip in a 96-spot array for 15 minutes. The remaining unconjugated active groups on the chip were then blocked by injecting 1M Ethanolamine pH 8.5 (Carterra) for 7 minutes using the single channel flow cell.
After priming with running buffer (HBS-EP+, Teknova) with 0.5 mg/ml BSA (Sigma), the immobilized anti-GPNMB antibodies were tested for their ability to bind to several forms of recombinant GPNMB extracellular domain, including human, cynomolgus, and mouse orthologs as described above. Estimates of affinity were generated by injecting each analyte over the entire antibody array using the single channel flow cell. GPNMB analytes were diluted to 2.5, 7.4, 22, 67, 200, and 600 nM in running buffer, and injected in serial from lowest to highest concentration without regeneration. Two buffer blanks were run between each series (one species per series). Data were processed and analyzed using Kinetics high-throughput kinetics analysis software (Carterra).

Binder	Kd [nM]	koff [s⁻¹]	kon [M⁻¹ s⁻¹]
B1	42.5	0.0038	91000
B2	36	0.0014	40000
B3	0.4	6.3e-05	190000
B4	8.8	0.00057	69000
B5	120	0.0034	28000
B6	11.1	0.00027	27000
B7	16.6	0.00029	19000
B8	5	0.00012	26000
B9	9	0.00011	12000
B10	11.7	0.00028	26000
B11	11.4	0.00028	26000
B12	14.4	0.00095	69000
B13	111	0.002	18000
B14	6.1	8.3e-05	14000
